Results: patent US20200216495A1 (ADRX, published 2020)
Values joined by “and” are separate entries in the source; they are usually repeats but may differ in a detail not shown here. Identical values can stand only once. Square brackets hold non-standard residues; d marks the D form. Ends that are not written are not given here. dCit = NC(=O)NCCC[C@@H](N)C(=O)O

molecular target: Ac-VQIINK-NH2 (SEQ ID NO: 23) (N-terminal acetyl (Ac); C-terminal amide (NH2)); assay: cell-based or functional assay

| VQIINK Inhibition IC50 | Binder |
| --- | --- |
| 0.76 µm | [dF][dR][dL][dK][dV][dR][dW][dW] [frlkvrww] |
| 0.75 µm | [dW][dK][dV][dK][dI][dQ][dY][dH] [wkvkiqyh] |
| 1.58 µm | [dW][dK][dL][dW][dL][dR][dW][dW] [wklwlrww] |
| 1.55 µm | [dF][dK][dI][dK][dL][dK][dW] [fkiklkw] |
| 1.38 µm | [dW][dR][dL][dN][dV][dN][dW] [wrlnvnw] |
| 1.41 µm | [dF][dK][dI][dE][dL][dH][dW][dH] [fkielhwh] |
| 0.77 µm | [dL][dE][dI][dR][dI][dH][dY] [leirihy] |
| 0.96 µm | [dH][dY][dH][dI][dR][dI][dK][dL] [hyhirikl] |
| 1.26 µm and 2.57 µm | [dF][dR][dL][dK][dV][dR][dW][dF] [frlkvrwf] |
| 1.17 µm | [dF][dE][dI][dR][dL][dW][dH][dH] [feirlwhh] |
| 1.52 µm | [dF][dR][dI][dK][dL][dK][dW][dH] [friklkwh] |
| 1.05 µm | [dL][dK][dI][dR][dI][dE][dY] [lkiriey] |
| 1.25 µm | [dW][dL][dR][dV][dQ][dV][dK][dL][dW] [wlrvqvklw] |
| 1.46 µm | [dL][dK][dI][dR][dI][dL][dY][dH] [lkirilyh] |
| 0.82 µm | [dF][dR][dI][dR][dI][dH][dH][dW] [fririhhw] |
| 1.37 µm | [dW][dR][dL][dK][dV][dR][dW][dL] [wrlkvrwl] |
| 1.03 µm | [dF][dE][dL][dK][dL][dR][dW][dH] [felklrwh] |
| 1.4 µm | [dF][dR][dL][dR][dI][dW][dW] [frlriww] |
| 1.3 µm | [dF][dK][dI][dR][dI][dK][dW][dH] [fkirikwh] |
| 1.1 µm | [dF][dH][dI][dR][dI][dR][dH][dW] [fhirirhw] |

| VQIINK Inhibition IC50 | Binder |
| --- | --- |
| 1.29 µm | [dW][dK][dV][dN][dV][dR][dL][dW] [wkvnvrlw] |
| 1.55 µm | [dL][dD][dL][dR][dF][dK][dL][dY] [ldlrfkly] |
| 1.16 µm | [dF][dH][dI][dH][dI][dK][dF][dH] [fhihikfh] |
| 1.24 µm | [dL][dK][dI][dR][dI][dR][dF][dH] [lkirirfh] |
| 1.54 µm | [dW][dR][dL][dK][dV][dR][dW][dE] [wrlkvrwe] |
| 1.38 µm | [dL][dE][dF][dE][dL][dK][dY][dW] [lefelkyw] |
| 1.3 µm | [dF][dK][dL][dK][dL][dW][dW] [fklklww] |
| 1.57 µm | [dF][dE][dL][dR][dL][dH][dW][dH] [felrlhwh] |
| 1.57 µm | [dW][dW][dR][dV][dK][dL][dR][dW] [wwrvklrw] |
| 1.2 µm | [dW][dR][dI][dW][dI][dR][dY][dW] [wriwiryw] |
| 1.57 µm | [dL][dK][dI][dR][dI][dE][dH][dY] [lkiriehy] |
| 0.97 µm | [dW][dQ][dL][dK][dV][dR][dW] [wqlkvrw] |
| 0.94 µm | [dW][dK][dV][dQ][dV][dR][dL][dW] [wkvqvrlw] |
| 0.93 µm | [dL][dR][dL][dK][dV][dR][dW][dL] [lrlkvrwl] |
| 0.69 µm | [dF][dR][dL][dK][dI][dR][dW] [frlkirw] |
| 1.48 µm | [dL][dR][dV][dQ][dV][dR][dL] [lrvqvrl] |
| 0.67 µm | [dL][dR][dL][dK][dV][dR][dW][dW] [lrlkvrww] |
| 1.15 µm | [dF][dK][dL][dK][dL][dW][dW][dF] [fklklwwf] |
| 1.21 µm | [dR][dL][dK][dV][dR][dW][dW][dW] [rlkvrwww] |
| 1.15 µm | [dL][dE][dI][dK][dI][dR][dH][dW] [leikirhw] |

| VQIINK Inhibition IC50 | Binder |
| --- | --- |
| 1.29 µm | [dF][dE][dL][dH][dI][dK][dW][dH] [felhikwh] |
| 1.58 µm | [dM][dR][dL][dR][dI][dH][dW] [mrlrihw] |
| 1.41 µm | [dL][dK][dI][dR][dI][dA][dY] [lkiriay] |
| 0.79 µm | [dW][dR][dL][dR][dV][dR][dW][dW] [wrlrvrww] |
| 1.53 µm | [dW][dK][dV][dW][dV][dR][dY][dW] [wkvwvryw] |
| 1.71 µm | [dL][dA][dI][dR][dI][dH][dY] [lairihy] |
| 1.2 µm | [dF][dK][dL][dK][dL][dR][dW] [fklklrw] |
| 1.47 µm | [dF][dR][dI][dK][dI][dR][dW] [frikirw] |
| 1.53 µm | [dL][dK][dI][dR][dI][dF][dY][dH] [lkirifyh] |
| 1.34 µm | [dW][dR][dL][dR][dI][dW][dW] [wrlriww] |
| 1.41 µm | [dL][dK][dI][dL][dI][dH][dY][dH] [lkilihyh] |
| 1.44 µm | [dW][dK][dL][dK][dL][dW][dW][dW] [wklklwww] |
| 1.54 µm | [dW][dR][dL][dR][dL][dR][dW] [wrlrlrw] |
| 1.63 µm | [dF][dW][dL][dK][dL][dR][dW][dF] [fwlklrwf] |
| 0.76 µm | [dL][dK][dI][dR][dI][dCit][dY] [lkirizy] |
| 1.7 µm | [dW][dR][dL][dK][dV][dR][dW][dR] [wrlkvrwr] |
| 1.49 µm and 2.92 µm | [dL][dK][dI][dR][dI][dR][dY][dH] [lkiriryh] |
| 1.35 µm | [dW][dR][dF][dH][dI][dH][dF][dY] [wrfhihfy] |
| 1.08 µm | [dW][dL][dR][dV][dQ][dV][dK][dW] [wlrvqvkw] |
| 1.66 µm | [dW][dR][dF][dK][dV][dR][dW] [wrfkvrw] |
